Experimental data reported in patent US20030004092A1.

Target: Myc expressed from a co-transfected Myc expressing plasmid (pSpMyc)
Experiment: cell-based or functional assay

## cdr2 expressed from a co-transfected cdr2 expressing plasmid
  Myc-dependent transcriptional activity (pM4luc luciferase reporter, NIH-3T3 cells): 4 fold
